Results taken from PMC2542476.

Molecular target: CFP-Cav1 (human caveolin-1 with CFP at its N terminus) (human) (UniProt Q03135)
Test: FRET or BRET

UniProt Q03135, sequence (Q03135 whole entry): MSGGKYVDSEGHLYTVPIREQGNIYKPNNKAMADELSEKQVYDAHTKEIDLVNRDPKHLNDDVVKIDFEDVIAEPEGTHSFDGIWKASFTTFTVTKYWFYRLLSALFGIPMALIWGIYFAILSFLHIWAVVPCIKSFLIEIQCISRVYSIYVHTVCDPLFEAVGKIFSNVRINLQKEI

Substance: YFP-tagged rat Na/K-ATPase α1 pump-null mutant D371N (natural protein)
- FRET efficiency: 15%
